Assay results reported in a protein production outcome set (Wang et al. 2014).

Test: label from the status in PepcDB records

Sequence | protein production
MIILIWMVIMRHVFRLNLWFVFLATFLFTPYLYAEPIKEPSRPKIALVLAGGGAKGAAHIGVLKALEELNIPIDIITGTSMGAYVGGLYATGKSASEIEAYLHTVDWYSGYQDEVGREEKNSRDKKYEDRFAINPSLGIRKEGVKSPKSAIQGQNMLKILRETSGNPVSVASFDDFPIRYRSVATDIVSMEEVVIDHGLLVDAMMASMSVPGALPPYEFEDKLLIDGGVTNNMPVELAKEMGADIVIAVDISSNYMTKEQIGSLFDVASQLTNFMVKRSTQEQAEFLTDKDILLQPRVGDIETTDFSSMPRAYQEGYDTVMTLKSRLQSLAVAPNEYAQYQNKIKQQSANVRLAQGAIIDKVEVENRSHYESDKLERFIQFEQGTLLSSDYIEDKIHALYATNRFETITYLVEEDNNENVLKVTAKEKEWGPNYLNFRFFLEEDFDTHSQYGLGASINFTDLNDYGAELRTNVELGTDKIFDATIHYPFYLNHHFFVQSNMMYSDKKRSISTSSLEDKEPNSSMSFYPVNLRDFTVDALFGVEATKDQQLKTGILYARGSHELTGLSAYGRTEYERLGATLEYNFDSLDSISLPTHGSLINARYLYAFDKVNSRDVEGSDHSEQYIDEFTAEALFARSIARHTFISSAEYGITNSDDYLVPVNPIELGGFNHLSGLPRNSLIGANKIYGRLTYRYRWFENDLGMFKTAVYLGASAEYGGLWSMKSTDISSAPLIFSGSLFGGIDTPIGPIILSYGRAENGLDSVYLIVGNVE | failed
MNMNITYISIYKTSLPVLVSLLMEYLIGFTDTAYLGRVGETELAASAIAGTYYMIIYMIGFGFSIGAQILIAQYNGNQQYKEAGKILSQGILFLLIIAVIVILFSSIISPIILKSIIDSESVLQAVLQYLDWRIYGFFFSFTIIMFRAFYIGIIHTSALMLNSITMVAINVILNYILIFGALGIPVLGISGAAIASVISEAVAVIHFIIYTQKNVSSCKYGLKRRITIDCTILKKILSISIWMMLQHGLVFGSWFVFFITMEHFGERSLAITNIVRNISSFLFLFVQAFASVVSSLVGNLIGENKGNSILYVCKKVIFLCYMTILPIMVLFLFFPSSTLRIYSDNTVLVFEAIPTLKVMLTSYLIAVPTFVFFSAVSGIGHAVASLLIAFISLVVYIVYVETISHFSSSVPLLWTSEHIYFSCVFILSLYHIHHSWMSFINQDKKLTTNIS | failed
MANKNPLQKPFLFIILSINLIFLQAETTTQISTKKTYVIHMDKSAMPLPYTNHLQWYSSKINSVTQHKSQEEEGNNNRILYTYQTAFHGLAAQLTQEEAERLEEEDGVVAVIPETRYELHTTRSPTFLGLERQESERVWAERVTDHDVVVGVLDTGIWPESESFNDTGMSPVPATWRGACETGKRFLKRNCNRKIVGARVFYRGYEAATGKIDEELEYKSPRDRDGHGTHTAATVAGSPVKGANLFGFAYGTARGMAQKARVAAYKVCWVGGCFSSDILSAVDQAVADGVQVLSISLGGGVSTYSRDSLSIATFGAMEMGVFVSCSAGNGGPDPISLTNVSPWITTVGASTMDRDFPATVKIGTMRTFKGVSLYKGRTVLPKNKQYPLVYLGRNASSPDPTSFCLDGALDRRHVAGKIVICDRGVTPRVQKGQVVKRAGGIGMVLTNTATNGEELVADSHMLPAVAVGEKEGKLIKQYAMTSKKATASLEILGTRIGIKPSPVVAAFSSRGPNFLSLEILKPDLLAPGVNILAAWTGDMAPSSLSSDPRRVKFNILSGTSMSCPHVSGVAALIKSRHPDWSPAAIKSALMTTAYVHDNMFKPLTDASGAAPSSPYDHGAGHIDPLRATDPGLVYDIGPQEYFEFLCTQDLSPSQLKVFTKHSNRTCKHTLAKNPGNLNYPAISALFPENTHVKAMTLRRTVTNVGPHISSYKVSVSPFKGASVTVQPKTLNFTSKHQKLSYTVTFRTRFRMKRPEFGGLVWKSTTHKVRSPVIITWLPPL | failed
EKVDLQYAAYEPKKLQSGNKNPLIIWLHGQGEGGTDPDITLLGNKVTALIKEDIQNHFKSGNQKGTYVLTVQAPTYWMDEGDGSNGQGAGTSRYTEVLMDAIKKYVAKIT | failed
SGDERFTLRIKDLRTGELLPDIIEDIFYGVAFSPDGTRLFYTVVDDSWRPYQVKSHILGTPVAEDEVLYQEDDVAMWLGFDLSSDRRHLVLSIGCSEFSETRLLRFEDYDAGLHTVISREHHILYEAEPFLLDGKETLLLTHNKDAINSMVSLVDPAELSKPLAEQHWRTVVEHSDDVRVNGAGVTSTHLVLSVRKDTIERVQVLPLAGLGTATQGAPVEPAFHEELYTAGVSGSDYESPVIRMGYTSYFTPSRVYDFVLPTAEQPGGELLLRKESPVLGGYSASDYVATREWATADDGTQVPLSVLRHASVQQDGTAAGLVYGYGSYELSMDPGFGVARLSLLDRGIVMVIAHIRGGGELGRKWYEDGKKFTKKNTFTDFIAATDWLAGSGWVDPSRIAAMGGSAGGLLMGAVANMAPEKYAAVVAQVPFVDALTTILDPELPLSALEWEEWGNPITDPEAYAYMKSYTPYENVGAVPYPKIAAVTSFNDTRVLYVEPAKWVQALRSASTGSEPIVMKIEMDGGHGGASGRYVQWRERAWDYAFIADSVG | failed
MDTVVLVLMLLTAFNFLLKQTFWKLIAVGIITAICAVFAGLMWPYAIEQSKTQIANWLSNQPLMLDTSVLLSVEVCIQMAYAMLAVHVANDYPVKPRMILMYRFLRWFPGLLIFPVLFSGLVYLIFAFPGTSFQTIAWSYAAFILAAIPCGRFILLYLLPEKELRLELFFLTNALVAVLGIVATVNGKTSAAGVSEIDWKALTGVIVIALAGGILGLLWWNIRNRNKEKSVKQ | failed
MKLKTEPLSNEKNFSKVKKALSSIPQVRDQKFEEETNTVTIKVVCCSPEKVMDKLCSKGRGAIKLIETIDPAKHVAQKPKEPEKPKEAEKPKEPEKPKPAAAPAQGDPSSQRVTHGYNPPPMMGHPVPWSDGPNYGWSRPNGYDERPIYNSYGGWQPPPSQYGGRSHYEEEQPSCSIM | failed
MALRSLVLFAALALVGCSSSPTADLVLTNGTVATLDDDHEQVEALAAADDTLLAVGSADAIDAYVGGDTRVIDLQGRLAVPGFIEGHGHYMGMGQAQMQLDLLGTSSWGRVVAKVDSSADETASGAWVEGRGWHQEKWTSTPERMVRGFPTNARLNEAAPDTPVYLTHASGHAAIANDAALEAAGIGPNTPDPEGGTIVRDAQERVTGVLLETAAGLVQEALDASRSGMSAADRRARRERQVRLAAEEALANGVTSFQDQGASFETIRLYREMAERGALDIRMYAMVAQGEVTPETQERLAEIRTVGAADQHLTVRAIGEVTVDGALGSRSAWMLEPYDDAPNDTGINVTPMERVREIAEIGLDEDYQIAVHAIGDRANRETLDLYASLFEAADGRGAERRWRVEHAQHLHPDDISRFADLGVMASMQAIHACSDAPYNYQRLGAQRVDQGAYLWNTLWADGAVVGNGTDVPVEKIDPLASLHCTATRQVPGTDTTFTPDETLTRRRALQSYTINNARMAFEEDVKGTLTPGKLADVTVLSENILTGPPERLREATVDYTIVGGEVAYANE | failed
MSAQKQEKTNVFLDPSKNEAYFKKRVGMGESFDLGVRKVFILGHEVQLYYVNGLCDTQYIIHLLRELVHLNDKEKESGEVEDIVENRLLNQQVSKAETLDEAVDQVLSGLVAIIVEDAGFAFIIDVRSYPGRTPEEPDTEKVVRGARDGLVENIIVNTALIRRRIRDERLRYKMLHIGERSKTDICLCYLEDVADPDLVEVLKKEIEDVKIDGLPMSDKSVEEFLVGQGYNPFPLVRFTERADVAASHILEGHVIVIVDTSPSVIITPTTLFHHVQHAEEYRQTPAVGTFLRWVRFFGILASTFLLPLWLLFVIHPSLLPDNLSFIGLNKDTHIPIIMQIFLADLGVEFLRMAAIHTPTALSTAMGLIAAVLIGDIAINVGLFSPEVILYVSLSAIGAYTTPSYELSLANKMVKLFMLILVALFKVEGFVIGLTILTIVMTSIRSLRTPYLWPLLPFNGKAFWHVLVRTSVPGGKVRPSIVHPRNRSRQP | failed
MDSLMTLLSVLIPMFAGFFIRVPKPYLPALDKVLSVLVYAVLLLIGVSLSRVEDLGSRLDDMALTVLWLFVCTVGANLLALAVLGKLFP | failed
MSWAAPDDIFFSTSLAAYLDKKLLVLLRDGRKLMGLLRSFDQFANAVLEEAYERVIVGDLYCDIPLGLYIIRGENVVLIGELDVEKEELPAHMVQVPEAEIKRAQKAEKEEMLLKGTMRKRMEFLDLD | failed
MATIGLDRLYYSKITEDANGEETYAQPSVLAKAITAELSVELVEAILYADDGAAEVVKDFNSGTLTLGVDDIGPMVAADLTGASTDDNGVLISASENVGTPVAVGFRAQRANGTYRYFWLYRVKFGLPATNLQTKADSITFSTPTIEGTVMRRNKLDGLGKHPWKAEVTEGDPGVSSTTITGWFTEVYEPVYTPEP | failed
